The data set deals with the molecule itself. The data set is described as follows: crystal structure.

B1: SFPQ-276-535 (dimerization domain of human SFPQ) (domain or fragment)
chain: EGFKANLSLLRRPGEKTYTQRCRLFVGNLPADITEDEFKRLFAKYGEPGEVFINKGKGFGFIKLESRALAEIAKAELDDTPMRGRQLRVRFATHAAALSVRNLSPYVSNELLEEAFSQFGPIERAVVIVDDRGRSTGKGIVEFASKPAARKAFERCSEGVFLLTTTPRPVIVEPLEQLDDEDGLPEKLAQKNPMYQKERETPPRFAQHGTFEYEYSQRWKSLDEMEKQQREQVEKNMKDAKDKLESEMEDAYHEHQANLL
Take B1: the binding result was “binds”.

Values taken from publication PMC7102971 (Nucleic Acids Research, 2020).
